These are literature values, as cited in PMC3174036.

The Kd is a measure of binding affinity in units of concentration.

In this data set the target is VEGFR-2 D7 D7 (Homo sapiens) (UniProt P35968).

With VEGFR-2 D7 D7 (from UniProt P35968), the Kd is 100 µM.
